Measured values reported in KR20220116962A (dated 2022).

Key:
[1] = molecular target: T1, GPR87(N)-Streptavidin (인간 GPR87 N-말단 세포외부위 영역과 STV 융합 항원) (human); test: ELISA, antigen coated, IgG titrated; apparent equilibrium dissociation constant
T1 construct: Purified on Ni-NTA, so a His tag is implied but not described; also called GPR87-STV
T1 chain: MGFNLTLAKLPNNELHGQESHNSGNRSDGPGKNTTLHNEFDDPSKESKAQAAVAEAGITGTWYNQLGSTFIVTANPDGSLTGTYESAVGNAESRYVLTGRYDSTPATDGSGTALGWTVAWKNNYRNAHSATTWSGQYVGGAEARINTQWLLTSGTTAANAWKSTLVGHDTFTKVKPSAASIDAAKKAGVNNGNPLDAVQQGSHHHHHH

[2] = molecular target: T2, GPR87(N)-GST (인간 GPR87 N-말단 세포외부위 영역과 GST 융합 항원) (human); test: as above
T2 construct: also called GPR87-GST

[3] = molecular target: T1, GPR87(N)-Streptavidin (인간 GPR87 N-말단 …); test: single-clone phage ELISA after 4 rounds of biopanning
[4] = molecular target: T2, GPR87(N)-GST (인간 GPR87 N-말단 세포외부위 영역과 …); test: as above

B1: 단일클론항체 A5 (IgG) (antibody, V domains shown)
VH: QVQLVQSGPGLVKPSETLSLTCSVSGGSMTSYYWSWVRQPPGKGLEWMGYVFHSGITNYSPSLKSRVTMSVDTSKNQFSLKLKSVTAVDTAVYYCAKKSGTSKKPIDYWGQGTTVTVSS
VL: DIVMTQSPSSLSASVGDRITITCRASQSVGTYVNWYQHKPGKAPKLLIYDASNLETGVPSRFSGSGSVTDFTLTITNLQPEDSATYYCLQHKNYPLTFGGGTKVEIKR
notes: also called A5 항체
In the case of B1, the Kd [1] is reported as 0.0147 µM and the Kd [2] is reported as 0.0133 µM.

B2: 단일클론항체 B1 (IgG) (antibody, V domains shown)
VH: EVQLVESGGGLVQPGRSLRLSCKASGFNFDEYALSWVRQAPGKGLEWVGFIRSKAYRETTEYAASVKGRCTISRDDSKSIAYLLMNSLRAEDTAVYYCARGHTPQRPYFDEWGQGTLVTVSS
VL: DIQMTQSPSFLSASVGDRITITCRASQSVGTYVNWYQQKLGKAPKLLIYTASTLQSGVPARFSGSGSGTEFTLTINGLQPEDFATYYCQQSYRPHFLTFGGGTQLTVLG
notes: also called B1 항체
B2 was tested, and the Kd [1] was 0.0199 µM and the Kd [2] was 0.0181 µM.

B3: A5 (scFv), phage-displayed clone (scFv)
scFv: QVQLVQSGPGLVKPSETLSLTCSVSGGSMTSYYWSWVRQPPGKGLEWMGYVFHSGITNYSPSLKSRVTMSVDTSKNQFSLKLKSVTAVDTAVYYCAKKSGTSKKPIDYWGQGTTVTVSSGGGSSGGGGSGGGGSGGGGSDIVMTQSPSSLSASVGDRITITCRASQSVGTYVNWYQHKPGKAPKLLIYDASNLETGVPSRFSGSGSVTDFTLTITNLQPEDSATYYCLQHKNYPLTFGGGTKVEIKR
B3: binds [3]; binds [4].

B4: B1 (scFv), phage-displayed clone (scFv)
scFv: EVQLVESGGGLVQPGRSLRLSCKASGFNFDEYALSWVRQAPGKGLEWVGFIRSKAYRETTEYAASVKGRCTISRDDSKSIAYLLMNSLRAEDTAVYYCARGHTPQRPYFDEWGQGTLVTVSSGGGSSGGGGSGGGGSGGGGSDIQMTQSPSFLSASVGDRITITCRASQSVGTYVNWYQQKLGKAPKLLIYTASTLQSGVPARFSGSGSGTEFTLTINGLQPEDFATYYCQQSYRPHFLTFGGGTQLTVLG
B4: binds [3]; binds [4].
